Measurements: patent US20130071400A1, “LINGO binding molecules and Pharmaceutical Use Thereof” (NOVARTIS AG, priority 2006, published 2013)

T1: cell surface LINGO-1 in CHO-K1-hLINGO-1 cells (Homo sapiens, UniProt Q96FE5)
T1 construct: expressed in transfected cells
T1 sequence (Q96FE5 34-614 isoform Q96FE5-2): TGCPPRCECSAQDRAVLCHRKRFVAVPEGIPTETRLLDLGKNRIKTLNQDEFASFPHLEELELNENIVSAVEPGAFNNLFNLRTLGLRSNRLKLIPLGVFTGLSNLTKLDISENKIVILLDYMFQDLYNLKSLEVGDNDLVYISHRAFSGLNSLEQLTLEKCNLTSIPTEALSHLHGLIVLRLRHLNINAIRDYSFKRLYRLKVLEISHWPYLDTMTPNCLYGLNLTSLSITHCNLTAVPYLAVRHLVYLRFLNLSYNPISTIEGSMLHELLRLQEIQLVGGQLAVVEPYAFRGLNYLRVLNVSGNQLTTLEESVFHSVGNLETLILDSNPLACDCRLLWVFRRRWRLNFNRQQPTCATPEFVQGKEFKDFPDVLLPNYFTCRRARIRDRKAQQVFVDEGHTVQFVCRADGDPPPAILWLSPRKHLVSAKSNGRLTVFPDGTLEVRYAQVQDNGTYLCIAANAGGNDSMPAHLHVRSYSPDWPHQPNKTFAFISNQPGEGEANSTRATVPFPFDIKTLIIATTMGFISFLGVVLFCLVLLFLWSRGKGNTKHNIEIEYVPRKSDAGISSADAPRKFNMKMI

B1: IgG4 4784: monoclonal human anti-LINGO-1 IgG4 antibody; VL SEQ ID NO: 4, VH SEQ ID NO: 5 (antibody, V domains shown)
VH: QVQLKESGPALVKPTQTLTLTCTFSGFSLSSSGVGVGWIRQPPGKALEWLAHIGSDDDKYYSTSLKTRLTISKDTSKNQVVLTMTNMDPVDTATYYCARNQQYGDGYPGYFDYWGQGTLVTVSS
VL: DIELTQPPSVSVAPGQTARISCSGDNIGNYYVYWYQQKPGQAPVLVIYEDTNRPSGIPERFSGSNSGNTATLTISGTQAEDEADYYCQSYDNLHEQVFGGGTKLTVLG
modifications: IgG4; 4784 VH; 4784 VL
B2: IgG4 4785: monoclonal human anti-LINGO-1 IgG4 antibody; VL SEQ ID NO: 6, VH SEQ ID NO: 7 (antibody, V domains shown)
VH: QVQLQQSGPGLVKPSQTLSLTCAISGDSVSDNSAAWSWIRQSPGRGLEWLGLIYLRSKWDNDYAVSVKSRITINPDTSKNQFSLQLNSVTPEDTAVYYCARTGRADEFDVWGQGTLVTVSS
VL: DIVLTQPPSVSGAPGQRVTISCSGSSSNIGNNYVSWYQQLPGTAPKLLISRNSKRPSGVPDRFSGSKSGTSASLAITGLQSEDEADYYCSTYDTFSIVFGGGTKLTVLG
modifications: IgG4; 4785 VH; 4785 VL

What was measured:
[1] = system: binding of LINGO-1 to NgR; assay: AP-LINGO-1 binding assay (AP-LINGO-1 binding to NgR:SH-SY5Y cells); set-up: species or system rat; settings: 2 μM Fab, 1 nM AP-LINGO-1; normalized to control Fab 3207; p<0.01 (FIG. 1)
Description: NgR:SH-SY5Y cells in suspension are incubated with either 1 nM AP or AP-LINGO-1 in the absence or presence of 2 μM of the indicated anti-LINGO-1 Fab or anti-hen lysozyme Fab 3207. Bound AP activity on the cells is measured as absorbance at 405 nm after a 30 min incubation with 1-Step™ PNPP. The specific binding of AP-LINGO-1 is calculated as the difference between the total amount of AP-LINGO-1 binding and the amount of binding with AP alone. The mean percentage inhibition of specific binding (n=3, ±STD) is calculated as the percentile difference between the amount of specific binding of AP-LINGO-1 in the presence of Fab 3207 and the presence of an anti-LINGO-1 Fab.
The PCR product is cleaved with XhoI and XbaI and inserted into the respective sites of the vector APtag-5-NHIS (SEQ ID NO: 26) to generate APtag-5-NHIS-solrLINGO-1. The predicted protein product is the majority of the rat LINGO-1 ectodomain fused at the N-terminus to residues 23-511 of human placental alkaline phosphatase via a 3 amino acid residue linker. […] AP activity of the concentrated supernatant is measured using 1-Step™ PNPP (Pierce) as change in absorbance at 405 nm over time and transformed to a concentration using the following equation (applies for a 96 well plate format with 200 μl PNPP/well): […]

[2] = molecular target: T1, cell surface LINGO-1 in CHO-K1-hLINGO-1 cells; assay: Downregulation of cell surface LINGO-1 (anti-V5 detection, TMB-ELISA); assay type: cell-based; settings: 100 nM IgG4, 24 hrs at 37° C., CHO-K1-hLINGO-1 cells (FIG. 6A)
Description: A) Untransfected CHO-K1 or CHO-K1-hLINGO-1 cells are incubated at 37° C. for 24 hrs with 100 nM 4784, 4785 and 3207 and LINGO-1 detected at the cell surface by a further incubation at room temperature for 30 min with the anti-V5 antibody. The cells are fixed with 4% PFA, blocked with BSA and bound anti-V5 antibody detected using an anti-mouse-IgG (Fc specific)-POD conjugate that is subsequently developed using a 1-Step™ Turbo TMB ELISA kit. The absorbance at 450 nm is taken as a measure of the amount of LINGO-1 at the cell surface (mean of triplicates±STD). A very low level of anti-V5 antibody binding is observed to untransfected CHO-K1 cells. Incubation of CHO-K1-hLINGO-1 cells with anti-LINGO-1 antibodies but not the control IgG4 3207 result in a significant reduction in the amount of LINGO-1 at the cell surface **p<0.01, one-way ANOVA with a Holm-Sidak comparison to the absorbance following incubation with the control IgG4 3207.
To determine the effect of anti-LINGO-1 antibodies on the amount of cell surface LINGO-1, untransfected CHO-K1 or CHO-K1-hLINGO-1 cells (see Example 1) are incubated at 37° C. for 24 hrs with 100 nM 4784, 4785 or 3207 and cell surface LINGO-1 is subsequently detected with an anti-V5 antibody followed by an anti-mouse IgG (Fc specific)-POD conjugate developed with a 1-Step™ Turbo TMB-ELISA kit (Pierce) (FIG. 6A).

Sequence of binding of LINGO-1 to NgR (as listed by the source): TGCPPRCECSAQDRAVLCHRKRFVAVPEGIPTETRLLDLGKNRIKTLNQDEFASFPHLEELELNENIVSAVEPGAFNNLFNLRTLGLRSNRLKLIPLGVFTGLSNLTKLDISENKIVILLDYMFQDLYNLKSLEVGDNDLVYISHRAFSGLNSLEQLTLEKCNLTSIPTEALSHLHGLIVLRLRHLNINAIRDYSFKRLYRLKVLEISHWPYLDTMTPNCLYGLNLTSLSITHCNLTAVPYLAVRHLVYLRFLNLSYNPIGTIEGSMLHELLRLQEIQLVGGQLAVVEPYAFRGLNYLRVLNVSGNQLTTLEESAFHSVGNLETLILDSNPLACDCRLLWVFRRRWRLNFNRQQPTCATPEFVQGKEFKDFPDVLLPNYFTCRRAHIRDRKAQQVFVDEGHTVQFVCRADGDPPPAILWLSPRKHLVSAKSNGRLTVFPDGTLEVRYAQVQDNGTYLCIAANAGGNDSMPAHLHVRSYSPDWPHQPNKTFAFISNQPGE

Molecule | inhibition of specific AP-LINGO-1 binding to NgR:SH-SY5Y cells [1] | amount of cell surface LINGO-1 (absorbance at 450 nm) [2]
B1 | significantly inhibit | significantly downregulate
B2 | significantly inhibit | significantly downregulate
